No end group written: not given here. Ahx = NCCCCCC(=O)O

The target in one assay is T1, mIgM on RPMI 1788 cells (human, UniProt P01871 1-474).
T1 construct: whole, on cells; Endogenous immunoglobulin of the cell line; light chain not described; also called IgM (RPMI 1788 cells); membrane IgM
The assay can be described thus: FACS, primary antibody plus secondary (Gt α Mu or G α Hu); % cells staining and MF. For orientation: Flow cytometry measures light scatter and fluorescence of single cells or particles in a stream.

In assay [1] the target is T2, cεmx.migis peptide (human, C-terminal -(Ahx)(K-Biot): aminohexanoic acid linker followed by a biotinylated lysine).
T2 construct: also called peptide (ii); cεmx.migs peptide
T2 peptide: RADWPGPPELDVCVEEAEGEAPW
The assay can be described thus: inhibition phage ELISA: cεmx.migis peptide on Neutravidin plate, phage with control IgG, A1c or B1, anti-M13-HRP. For orientation: ELISA stands for enzyme-linked immunosorbent assay.

Assay [2] addresses T3, peptide from phosphoinositide binding protein (human).
T3 construct: also called peptide (vi); PIBP peptide
T3 peptide: TQLLCVEAFEGEEPW-{Ahx-K(biotin)}
The assay can be described thus: peptide ELISA (Migis, cemx.migis, PIBP peptide); antibody concentration not shown.

A further assay addresses T4, ε-migis peptide (human).
T4 construct: also called peptide (i); human ε-migis
T4 peptide: ELDVCVEEAEGEAPW-{Ahx-K(biotin)}
The assay is described as above.

Assay [3] deals with T2, cεmx.migis peptide. In words: inhibition phage ELISA: cεmx.migis peptide on Neutravidin plate, phage with irrelevant IgG control or A1c IgG, anti-M13-HRP.

T1 sequence (P01871 whole entry): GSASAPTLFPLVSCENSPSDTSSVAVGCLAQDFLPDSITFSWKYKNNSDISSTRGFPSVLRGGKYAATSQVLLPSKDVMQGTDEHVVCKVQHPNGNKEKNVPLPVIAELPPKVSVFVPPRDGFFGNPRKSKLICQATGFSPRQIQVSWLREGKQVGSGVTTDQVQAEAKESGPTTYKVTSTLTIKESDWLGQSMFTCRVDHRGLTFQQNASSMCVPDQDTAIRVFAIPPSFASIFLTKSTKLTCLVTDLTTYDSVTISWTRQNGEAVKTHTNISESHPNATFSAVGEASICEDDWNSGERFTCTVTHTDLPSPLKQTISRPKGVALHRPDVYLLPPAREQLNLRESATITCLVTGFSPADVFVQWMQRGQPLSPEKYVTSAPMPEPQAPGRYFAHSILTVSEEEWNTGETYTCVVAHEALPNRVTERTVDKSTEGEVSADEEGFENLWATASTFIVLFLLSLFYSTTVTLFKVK

B1: D5 antibody (antibody, V domains shown)
VH: EVQLLESGGGLVQPGGSLRLSCAASGFTFSKYHMVWVRQAPGKGLEWVSSIGPSGGNTYYADSVKGRFTISRDNSKNTLYLQMNSLRAEDTATYYCARALGATFDYWGQGTLVTVSS
VL: DIQMTQSPLSLPVTLGQPASISCKSSQSLVYRDGITYLSWFQQRPGQSPRRLIYKVSNRDSGVPDRFSGSGSDSNFTLKISSVEAEDVGLYFCMQGSHWPFTFGPGTKVDIKR
notes: Fully human clone from the Dyax FAB-310 Fab phage library, converted to full length IgG (detected with an anti-human IgG1 Fc antibody); also called D5 IgG; clone D5
In the case of B1, the binding result is reported as “no binding” with mIgM on RPMI 1788 cells, “binds” in the assay with cεmx.migis peptide [1], “no binding” in assay [2] and “no binding” with ε-migis peptide.

B2: B1 antibody (antibody, V domains shown)
VH: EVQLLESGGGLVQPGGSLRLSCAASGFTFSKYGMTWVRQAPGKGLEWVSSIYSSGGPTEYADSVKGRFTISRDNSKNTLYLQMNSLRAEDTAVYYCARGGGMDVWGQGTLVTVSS
VL: DIQMTQSPVSLPVTLGQPASISCRSSHSLVYSHGGTYLNWFQQRPGRSPRRLIYQVSNRDSGVPDRFSGSGSDTDFTLQISRVEADDIGIYYCMQSTYWPYAFGQGTKLDIKR
notes: Human Fab phage clone converted to full IgG; also called CP1-B1
With B2, the figures for the binding result (in the assay with cεmx.migis peptide [1]; in assay [2]; with ε-migis peptide) were “binds”, “no binding” and “no binding”, respectively.

B3: A1c antibody (antibody, V domains shown)
VH: EVQLLESGGGLVQPGGSLRLSCAASGFTFSFYSMLWVRQAPGKGLEWVSYIGPSGGKTYYADSVKGRFTISRDNSKNTLYLQMNSLRAEDTAMYYCARRYCSGGSCYFDYWGQGTLVTVSS
VL: DIQMTQSPSTLSASIGDRVTITCRASQSINSWLAWYQQKPGKGPDLLIYKASSLQSGVPSRFSGSGSGTEFTLTISSLQPDDFATYYCQQYSSWPLTFGGGTKVEIKR
notes: Human Fab phage clone converted to full IgG; also called anti ε-migis antibody A1c
For the molecule B3, the binding result (in the assay with cεmx.migis peptide [3]; in assay [2]; with ε-migis peptide) was “binds” throughout.

B4: F4 antibody (antibody, V domains shown)
VH: EVQLLESGGGLVQPGGSLRLSCAASGFTFSNYGMFWVRQAPGKGLEWVSSIWPSGGNTMYADSVKGRFTISRDNSKNTLYLQMNSLRAEDTAVYYCARASYYGMDVWGQGTTVTVSS
VL: DIQMTQSPSSLSASIGDRVTITCRGSQNIGRYLNWYQHKPGKAPDLLVYAASSLRSGVPSRFSGSGSGRDFTLTISSLQPGDFATYYCQQSYSAPFTFGAGTKVDVKR
notes: Human Fab phage clone converted to full length IgG; also called clone F4
With B4, in the assay with cεmx.migis peptide [1], the binding result was “binds”.

The values are drawn from patent US20120141463A1 (AstraZeneca / MedImmune, published 2012).
